Experimental data as given in the DeepSol protein solubility set.

assay: soluble on expression in E. coli; label from the status in PepcDB or PDB records

Sequence | soluble on expression in E. coli
SSFQTSLPRLPVPAVKDTVSRYLESVRPLMKEGDFQRMTALAQDFAVNLGPKLQWYLKLKSWWATNYVSDWWEEYIYLRGRGPIMVNSNYYAMEMLYITPTHIQAARAGNTIHAILLYRRTVDREELKPIRLLGSTIPLCSAQWERLFNTSRIPGEETDTIQHVKDSRHIVVYHRGRYFKVWLYHDGRLLRPRELEQQMQQILDDTSEPQPGEAKLAALTAADRVPWAKCRQTYFARGKNKQSLDAVEKAAFFVTLDESEQGYREEDPEASIDSYAKSLLHGRCFDRWFDKSITFVVFKNSKIGINAEHSWADAPIVGHLWEYVMATDVFQLGYSEDGHCKGDKNPNIPKPTRLQWDIPGECQEVIETSLSSASFLANDVDLHSFPFDTFGKGLIKKCRTSPDAFIQLALQLAHYKDMGKFCLTYEASMTRLFREGRTETVRSCTTESCNFVLAMMDPTTTAEQRFKLFKIACEKHQHLYRLAMTGAGIDRHLFCLYVVSKYLAVDSPFLKEVLSEPWRLSTSQTPQQQVELFDFEKYPDYVSCGGGFGPVADDGYGVSYIIVGENFIHFHISSKFSSPETDSHRFGKHLRQAMMDIITLFGLTANSKK | soluble
KMERKNVWHHRKKEEIEAFSKEYMEFMSKAKTERMTVKEIKRILDESGFVPLEDFAGDPMNMTVYAVNRGKAIAAFRVVDDLKRGLNLVVAHIDSPRLDFKPNPLIEDEQIALFKTHYYGGIKKYHWLSIPLEIHGVLFKNDGTEIEIHIGDKPEDPVFTIPDLLPHLDKEDAKISEKFKGENLMLIAGTIPLSGEEKEAVKTNVLKILNEMYGITEEDFVSGEIEVVPAFSPREVGMDRSLIGAYGQDDRICAYTALRALLSANPEKSIGVIFFDKEEIGSDGNTGAKARFYLKALRQILKMQGAKDSEFVLDEVLENTSVISGDVCAAVNPPYKDVHDLHNAPKLGYGVALVKYTGARGKYSTNDAHAEFVARVRKVLNEQGVIWQVATLGKVDQGGGGTIAKFFAERGSDVIDMGPALLGMHSPFEISSKADLFETYVAYRSLMEKL | soluble
LKSADHGGRLAYDNGRYGDGDGLTQNGGVNGGLRFGESGFLNLSAQFREQARTIRAGIDQRTGHYGNPSIGDPSLHRQALAYNAGVALDDNVELYSFATYTHRSVSSAQIYQLPSLAPRLYPNGFTPRITSDEDDYSLTLGARGGELFGAWDWDLSSTYGADRPEIGMDHSINLALYGETGDSPRSFDLARYKATQWTNNLDLRRDFDLAWLPAPLNFSWGLEQRRELYEVEAGDPWSYYNGGSKALPGQAPATAGQWSRDVLGAYLDLSIALDERWQLETAARYEHYSDFGSTTNGKLASRYRFSPEVSARASLSSGFRAPSLAQENYTS | not soluble
MHHHHHHSSGVDLGTENLYFQSMVDATRVPMDERFRTLKKKLEEGMVFTEYEQIPKKKANGIFSTAALPENAERSRIREVVPYEENRVELIPTKENNTGYINASHIKVVVGGAEWHYIATQGPLPHTCHDFWQMVWEQGVNVIAMVTAEEEGGRTKSHRYWPKLGSKHSSATYGKFKVTTKFRTDSVCYATTGLKVKHLLSGQERTVWHLQYTDWPDHGCPEDVQGFLSYLEEIQSVRRHTNSMLEGTKNRHPPIVVHCSAGVGRTGVLILSELMIYCLEHNEKVEVPMMLRLLREQRMFMIQTIAQYKFVYQVLIQFLQNSRLI | soluble
MQDLEAELERARELDVATLADAIETIGFECTRCGACCKSEADDPHTATVFPDEVRDVQAAAGAETDRDWRDVARPMPYGLDEDGAGETFEWALQADSCGDCTFYREDDDGTGACSVHGSRPLICQTYPFSVALGGTSQPMGEAVDEAGMVRAHECEGLGRDISRADAEELAGALKARAIRELEEAIDVREAYAPANPEPGATVVHDSEGAKRPDGSAYPNAAALEHHHHHH | not soluble
MNKDLRPIIWNDSEKKLVLIDQRKLPNELVYFECKNYKDVCFAIKDMVVRGAPAIGVAAAYGMALAELNGEDMEKAYLELKKTRPTAVNLFWALEKIIAAKNSGKSLLDEAKLIHEEDIELCRKIGEIGEVLIDDFDTILTHCNAGALATSAYGTALSVIRFAHYNGKKINVLSDETRPRLQGAKLTCFELNYENIPVKAICDNTAGFMMSKGLVDKIIVGADRILSDYHVFNKIGTYSLAILAKYHNIPFYVAAPYSTFDFESKLEDIVIEERSESEVTHIDNVRIVAEGVSAYNFAFDCTPPELITGIITEKEIIYPNKLEHHHHHH | not soluble
MNLNQLTGADLMAARTHIGLSISAVAKLTGINRNTLSQFEQEKASLSGSEKKRLAGCYEERGYHFDEPQTTDETVLATRYDDARERLVDAAYDVNMNGLGEAVLALADASHDLLSMLARPMDVAQEEVELDAVELPESYLEMHNVLQRHFLADKAGQMQGKVGFFKEDADERSAKLIAYMAQQYLTLLHAEMPEVVSLERDSLDDDSDNARVLDALANWTFYDALKEMTV | not soluble
METSDERLAGAAAEGDRGAFALLVERHYDRIFGLSWRLTGSRTEAEDLAQDICAALPMKLRGWRGEARFTTWLYRVVVNASHDLRRRQSAHSRAAAGWGDWELARQDEIGEARAAEEWLAAAMTALPVELRDTVALVLGEEMTQAEAGAVLGLAEGTVAWRMSEVKKRLRAMALREARA | not soluble
MLIVRPSGRAAEDVETCLNAGWRAEVLSPVEIEADAAGLELLSEQYARADAVFWVSPTAVETAVPYLNLSDGIKAQIAVGQGSRRALERCLVRTVIAPDDGNDSEAVLRLPVWNSLPEGARVLFVRGHGGRDFLMNALQEKGFRTEVAEVYFRRHKPLNFQNFQTENIAAAYITSTELVRLLFGQLPPQFSRFFKSLLYFTHHPRIAEALKREGVCSVETVPTLEAALSHSSISVSDGMVFPGTSN | not soluble
MGSDKIHHHHHHLGKFSHIAIAFIDVVMESDHAGLELIRWIREELHNKTIRLILRTGQPGQAPEEDVIVNYDINDYKAKSELDSRKLMTSVYSALRSYRDIMEIEQARRAQLSHRMGLERVLEATAGLFELRTLHKFADGLLTQVATLLNLDNETLLLSCNAMDAISGHVDCAGIEILAGTGQFANSSAKTILPERIDKLLRSALAQKRCLYEDNYFVGYFPTKSGLINLLYMDGINKIDDLDKKLIDIFAINVGIAFENLLLNQEVEDTQSELILRLGDVVESRSKEAANHVKRMAEYCAQLALLAGLNEYDADLLRRASPMHDIGKIAIPDAVLLKPGKLNDDEWQIMRQHPNIGHQILANSERPILKAASIIALQHHEKYDGSGYPSNLKQDEIHIFARIVAIADVFDALSHTRCWLFLPIPQKCKISDRLAQKHTVNWSLYRRIP | not soluble
MAHHHHHHMCVKCLFLARSEMAIEESACNDDSQAVTEATSERTVNSATVFRYPFNTMDLGWLVGYIDAFLVKSERWAAAMRLTTCFMTFTVLHEDPLMEDATFQLHKTMLDRSIKKSWPRRNRDLSNTFDAAYHVFETICIVSKYPNLDPAGKAGILRMSEKLIQGMEKPMDNVVIKIDLKKKSETLHATLARLQALGRAPESLSAFDALMASLKMVFFCYVASLGINNMMLDANLNKMDSYVCCEGCPCHAKLRTTYTLFIRDVEKTKVIDCLLIMAVKEDDAFLSKLAEGLFTQFDCRSPFLEKPVRRIQNGALFMVRIALFDAFRHVKALLVDLRASPASLAPQIDNVVLALYIARREMRGMKGLNEHLPLVNKALATADSIYSRLGTENASQELRTLKDYITKIFFLVSAPEFHLAVHSKDPLVGKGAKLCCGNPDCPGKVKEMLKCSGCRVTFYCSVTCQRDDWKTHRFLCKEMGCRKAAPAPIKMAECSTETLKPAAFHG | not soluble
MSLREIVWVHSQRIAPYKTLILNELRYYPLELDPTPFNALVFTSKNAVFSLLETLNNSPKLKTLQNIPAYALSEPTAKTLQDHHFKVAFIGKKAHGKEFAQEILPLLKGKSVLYLRAKEIASSLDTILLEHGIDFKQAVVYENKLKHLTLSEQNALKPKEKSVLIFTAISHAKAFLHYFEFLENYTAISIGNTTALYLQEQGIPSYIAKKPSLEACLELALNLKSEGHHHHHH | soluble
MKKEKAIVVFSGGQDSTTCLLWALKEFEEVETVTFHYNQRHSQEVEVAKSIAEKLGVKNHLLDMSLLNQLAPNALTRNDIEIEVKDGELPSTFVPGRNLVFLSFASILAYQIGARHIITGVCETDFSGYPDCRDEFVKSCNVTVNLAMEKPFVIHTPLMWLNKAETWKLADELGALDFVKNNTLTCYNGIIADGCGECPACHLRSKGYEEYMVMKGERA | soluble
MHHHHHHSSGVDLGTENLYFQSMEESGATFHTYLNHLIQGLQKEAKEKFKGWVTCSSTDNTDLAFKKVGDGNPLKLWKASVEVEAPPSVVLNRVLRERHLWDEDFVQWKVVETLDRQTEIYQYVLNSMAPHPSRDFVVLRTWKTDLPKGMCTLVSLSVEHEEAQLLGGVRAVVMDSQYLIEPCGSGKSRLTHICRIDLKGHSPEWYSKGFGHLCAAEVARIRNSFQPLIAEGPETKI | soluble
MGHHHHHHSHMPPYPANSVFCKDKVSLCCQVGPDFLGSSAPFSASHSAGITGMSHYAQPVFCSLNKGRTVW | not soluble
MPLEASELKPTAGPLEASELKPTAGPLEASELKPTAGPLEASELKPTAGPLEASELKPTAGPLEASELKPTAGPLEASELKPTAGMPSVQQDITHPKELLISTNWLNRKDVPFMNNQEQQIQNVLNTLRDPDTIRTRSHRILNLAKQNRLEHFSLNPERMTTTASYIVDIITSRYPELDIPYHSRWRHFEMDGLPRIHNLRKQLDPISPSEWGKILYELVIISVFLDAGAGPLWRYKEALTEKEYSRSEGLALASLYLYESGAFSADPTNPFRVDAERLLDFKETDLIKGFQVSSTNLLEGIPGRVSLLNRLGEIIHRKEHCFNRRKRLGEFYTYVESLQDNKILPTTKLFEAVLETFNDIWPVRLIYHGVSLGDVWIHSALKTNEAGSEYIPFHKLSQWLTYSLVEPLEQTGIDIADLDVLTGLPEYRNGGLLIDTELLKVRNNKILEQPQDPGSEPIVEWRALTVALLDELALLIRQQLNMNAESLPLAKILQGGTWEAGRQIAQKKRINGTPPIEIISDGTIFLEHHHHHH | not soluble
MVATVVNVQVKNEEKIETAPKKVVFDTKNLNLWYGEDHALKDINLSIHENEVTAIIGPSGCGKSTYLKTLNRMVELVPIVRTTGVIEYRERNIFDKSYPVEELRTHVGMVFQKPNPFPKSIYENVAYGPKIHGISDKKTLDEIVEKSLRGAAIWDELKDRLHDNAYGLSGGQQQRLCIARCLAIEPDVILMDEPTSALDPISTLKVEELIQELKKDFSIVIVTHNMQQAARISDKTAFFLSGEVVEYTDTNKLFTTPSDKRTEDYITGRFG | not soluble
MSLRVIDSHTAGEPTRVVLDGGPDLGSGTLAERAARLEAEHLDFCASVMLEPRGHDAIIGALLVPPSDPACAAGVIYFNNLQNLGMCGHATIGLGVTLAHLGRIRPGRHRFETPVGVVEIDLIDANTVSVVNIESYRLAKDVTVEVEGVGPVTGDVAWGGNWFFMVKNSPIALTGANIRPLTDLTLKIRTALEKAGVTGKDGAWIDHIELFGPAEDPAAQSRNFVLCPGGAYDRSPCGTGCSAKMACLAADGALAPGQDYLQESVIGSTYKISYQPGPGGGVIPTITGQAFVTSDATLIFNPADPYRSGIRLEGHHHHHH | soluble
MGSDKIHHHHHHMTIRQTKEANLLISERADFQVTAKIEQMAKGYIDRWHQHPWHQIAFPFEGILQTKVADSQFVIPHSGMLFIPANTPHESFVVTDTKFIGIYLNPQFQNHFPLTAKAISVTPFLRELVLHINHGVSNSIVSEEELSKLVAVLIDQISSGESYQMKLLLPSDRRLMIIFKALMTDPQLNTKLSDWAKQVGASERTLSRLFTKELGMTFPLWRQHLRLVSSLNLLETNLSVQEIAFKVGYNADSSFIYAFKKLFQQTPQQYRHSGFKLSSRINDK | not soluble
